Bridge positions count the residues as written; N and C are the ends. * marks the point of attachment. Biotin = O=C1N[C@H]2[C@H](CS[C@H]2CCCCC(=O)*)N1
How the values were obtained:
Assay in all cases: cell depletion on chemokine-streptavidin Sepharose column, flow cytometry for CCR1, 3 and 5-expressing cells
hCCR3 = target: T1, hCCR3 (human, UniProt P51677 1-355)
T1 construct: whole, on cells
T1 sequence (looked up): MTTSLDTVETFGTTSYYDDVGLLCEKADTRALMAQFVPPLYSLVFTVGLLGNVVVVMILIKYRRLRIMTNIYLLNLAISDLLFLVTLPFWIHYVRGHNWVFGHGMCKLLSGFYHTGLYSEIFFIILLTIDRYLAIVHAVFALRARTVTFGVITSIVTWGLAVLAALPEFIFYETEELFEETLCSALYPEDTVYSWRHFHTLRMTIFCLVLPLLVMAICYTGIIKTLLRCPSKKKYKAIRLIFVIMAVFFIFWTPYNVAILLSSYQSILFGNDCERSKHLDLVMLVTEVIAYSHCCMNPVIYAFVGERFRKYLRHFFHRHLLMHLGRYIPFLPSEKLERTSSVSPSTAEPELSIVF
Method: (§1) To investigate the ability to eliminate CCR1, 3 and 5-expressing cells, in vitro tests have been performed on the biotinylated RANTES coupled matrix. Blood was collected from blood donors and passed through the column device containing biotinylated RANTES coupled matrix. Blood samples were taken before and after column passage and analyzed by flow cytometry (FACS) for the depletion of CCR1, 3 and 5-expressing cells.
(§2) Depletion tests were performed on blood from a healthy donor.

hCCR5 = target: T2, hCCR5 (human, UniProt P51681 1-352)
T2 construct: whole, on cells
Method: as §1, §2

CCR1 = target: T3, CCR1 (human, UniProt P32246 1-355)
T3 construct: whole, on cells; Endogenous receptor on blood cells in the RANTES depletion test
T3 sequence (looked up): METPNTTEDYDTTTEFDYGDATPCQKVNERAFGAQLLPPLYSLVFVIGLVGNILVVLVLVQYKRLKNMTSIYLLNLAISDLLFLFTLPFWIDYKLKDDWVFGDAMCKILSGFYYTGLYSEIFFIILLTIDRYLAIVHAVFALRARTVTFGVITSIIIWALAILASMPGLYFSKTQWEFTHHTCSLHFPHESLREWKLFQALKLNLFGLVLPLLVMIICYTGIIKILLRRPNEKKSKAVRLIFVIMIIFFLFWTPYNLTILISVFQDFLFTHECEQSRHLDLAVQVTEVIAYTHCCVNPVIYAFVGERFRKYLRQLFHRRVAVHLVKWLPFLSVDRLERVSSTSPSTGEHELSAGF
Method: as §1, §2

T2 sequence (P51681 whole entry): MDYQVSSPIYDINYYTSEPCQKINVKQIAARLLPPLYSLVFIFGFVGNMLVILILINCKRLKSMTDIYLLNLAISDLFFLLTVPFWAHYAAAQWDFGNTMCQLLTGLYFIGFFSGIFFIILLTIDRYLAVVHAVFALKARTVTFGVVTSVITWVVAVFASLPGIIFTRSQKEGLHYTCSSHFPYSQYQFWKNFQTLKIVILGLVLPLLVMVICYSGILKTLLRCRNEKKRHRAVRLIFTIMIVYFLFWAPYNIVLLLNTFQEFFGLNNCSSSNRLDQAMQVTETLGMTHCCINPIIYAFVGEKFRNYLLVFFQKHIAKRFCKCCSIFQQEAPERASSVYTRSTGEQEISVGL

reduction of chemokine receptor-expressing cells by the column (hCCR3): ~20%
reduction of chemokine receptor-expressing cells by the column (hCCR5): ~20%
reduction of chemokine receptor-expressing cells by the column (CCR1): ~20%
B1: biotinRANTES (CCL5): RANTES derivatised at the ε-amino side chain functionality of Lys(67) with Biotin (ligand)
chain: H-SPYSSDTTPCCFAYIARPLPRAHIKEYFYTSGKCSNPAVVFVTRKNRQVCANPEKKWVREYINSLEK(Biotin)S-OH
modifications: disulfide 10-34, 11-50; also: TFA salt
notes: It is treated here as the same molecule; also called biotinylated RANTES
